{"source": "patent US20200181210A1", "about": "“MODIFIED CYCLIC PEPTIDES AND THERAPEUTIC USE THEREOF” (THE BROAD INSTITUTE, INC., priority 2017, published 2020)", "test_system": "trypsin", "experiment": "trypsin protease digestion resistance of cyclotides (SDS-PAGE)", "method": "Protease conditions were tested on cyclotides and variants. Samples were subjected to 10 μg of trypsin at 37° C. for up to 24 hours. […] Four elutions were collected in 200 μL fractions. Protein content of bound/eluted material was quantified based upon detection of fluorescently labeled lysines within bound/eluted sequences.\nThe cyclotides and empty yeast vector were then subjected to 10 μg trypsin protease digestion at 37° C. for up to 24 hours."}
{"substance": "pYES-MCoTI: native (natural) MCoTI cyclotide expressed in yeast from the pYES vector (cyclo(GGVCPKILQRCRRDSDCPGACICRGNGYCGSGSD); also: cyclic cystine knot, three disulfides CysI-IV, II-V, III-VI)", "values": [{"measurement": "resistance to trypsin digestion", "setting": "10 μg trypsin, 37° C., up to 24 hours, SDS-PAGE", "value": "resistant to trypsin digestion"}, {"measurement": "resistance towards trypsin", "setting": "trypsin exposure up to 18 hrs (FIG. 28)", "value": "resistance towards trypsin up to 18 hrs with no change in levels"}]}
